Results on 38 sequences are retold here after the supplement of paper PMC7877785.

± gives the uncertainty stated by the source.

The series in a line: self-splicing fitness, log relative to wild type (ln ratio); higher = more splicing; Tetrahymena group I intron in knt gene, E. coli kanamycin selection, DiMSum; sequences stand for … in CUCUCU…GGAGGGAAAAGUUAUCAGGCAUGCACCUGGUAGCUAGUCUUUAAACCAAUAGAUUGCAUCGGUUUAAAAGGCAAGACCGUCAAAUUGCGGGAAAGGGGUCAACAGCCGUUCAGUACCAAGUCUCAGGGGAAACUUUGAGAUGGCCUUGCAAAGGGUAUGGUAAUAAGCUGACGGACAUGGUCCUAACCACGCAGCCAAGUCCUAAGUCAACAGAUCUUCUGUUGAUAUGGAUGCAGUUCACAGACUAAAUGUCGGUCGGGGAAGAUGUAUUCUUCUCAUAAGAUAUAGUCGGACCUCUCCUUAAUGGGAGCUAGCGGAUGAAGUGAUGCAACACUGGAGCCGCUGGGAACUAAUUUGUAUGCGAAAGUAUAUUGAUUAGUUUUGGAGUACUCGUGGUCG
In a few lines: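 Pooled colonies went to amplicon sequencing on an Illumina HiSeq 2500 after six replicate transformations. The plates were LB agar with 100 μg/mL carbenicillin, 50 μM IPTG and 0.2% rhamnose, with or without 25 μg/mL kanamycin, incubated overnight at 37°C or 30°C. The E. coli BL21(DE3) library had all eight P1ex-region intron nucleotides randomised, the intron placed in the knt kanamycin-resistance gene on pET-22b(+). DiMSum fitness is the error-weighted combination of replicate fold changes, kanamycin against none, normalised to wild type.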

As to CAUUAGCAAUAUUACGAUAU, the “self-splicing fitness (ln)” value is -2.91 ± 0.2 (30 °C) and -3.27 ± 0.3 (37 °C).
In the same order, the values of CAUUAGCAAUAUUACGCAUA are -2.03 ± 0.18 and -1.06 ± 0.15.
The like results for CAUUAGCAAUAUUACGCUGU were, in that order, -2.72 ± 0.13 and -2.21 ± 0.18.
In the same order, the values of CAUUAGCAAUAUUACGCUUU are -3.35 ± 0.23 and -1.06 ± 0.16.
Consider CAUUAGCAAUAUUACGGAGU, for which the “self-splicing fitness (ln)” value runs as follows: (30 °C) -3.87 ± 0.19; (37 °C) -2.7 ± 0.2.
The like results for CAUUAGCAAUAUUACGGCCG were, in that order, 0.721 ± 0.13 and 0.409 ± 0.14.
In the same order, the values of CAUUAGCAAUAUUACGGGCC are -2.71 ± 0.23 and -2.95 ± 0.43.
The like results for CAUUAGCAAUAUUACGGGGU were, in that order, -3.26 ± 0.17 and -2.25 ± 0.17.
For CAUUAGCAAUAUUACGGUCC, for the setting “37 °C”, the “self-splicing fitness (ln)” value is -1.72 ± 0.34.
Regarding CAUUAGCAAUAUUACGGUCG, the “self-splicing fitness (ln)” value by setting is: (30 °C) -0.452 ± 0.14; (37 °C) 0.576 ± 0.14.
CAUUAGCAAUAUUACGUAAA: the “self-splicing fitness (ln)” value (30 °C) was -2.93 ± 0.15 and the “self-splicing fitness (ln)” value (37 °C) was -1.34 ± 0.15.
The like results for CAUUAGCAAUAUUACGUACA were, in that order, -2.7 ± 0.21 and -2.58 ± 0.2.
The like results for CAUUAGCAAUAUUACGUCGU were, in that order, -4.03 ± 0.26 and -0.437 ± 0.17.
The like results for CAUUAGCAAUAUUACGUCUG were, in that order, -0.197 ± 0.062 and 0.00612 ± 0.072.
As to CAUUAGCAAUAUUACGUGCC, the “self-splicing fitness (ln)” value (30 °C) was -2.77 ± 0.29 and the “self-splicing fitness (ln)” value (37 °C) is -2.26 ± 0.45.
In the same order, the values of CAUUAGCAAUAUUACGUGGC are -2.79 ± 0.36 and -2.09 ± 0.33.
In the case of CAUUAGCAAUAUUACGUUAU, the “self-splicing fitness (ln)” value (37 °C) is -1.91 ± 0.22.
Take CAUUAGCAAUAUUACGUUGU: the “self-splicing fitness (ln)” value is, setting by setting: (30 °C) -3.95 ± 0.23; (37 °C) -2.75 ± 0.22.
In the same order, the values of CCAAAGCAAUAUUACGAAAC are -3.13 ± 0.2 and -2.95 ± 0.34.
The like results for CCAAAGCAAUAUUACGAAAG were, in that order, -1.14 ± 0.088 and -0.678 ± 0.11.
The like results for CCAAAGCAAUAUUACGAACU were, in that order, -2.89 ± 0.29 and -2.13 ± 0.38.
Take CCAAAGCAAUAUUACGACGG: the “self-splicing fitness (ln)” value is, setting by setting: (30 °C) -3.1 ± 0.14; (37 °C) -2.43 ± 0.19.
In the same order, the values of CCAAAGCAAUAUUACGAGAU are -3.13 ± 0.2 and -2.5 ± 0.23.
As to CCAAAGCAAUAUUACGAGCU, the “self-splicing fitness (ln)” value by setting is: (30 °C) -3.38 ± 0.22; (37 °C) -2.14 ± 0.22.
In the same order, the values of CCAAAGCAAUAUUACGAGUC are -3.73 ± 0.2 and -2.04 ± 0.19.
In the same order, the values of CCAAAGCAAUAUUACGCAAC are -1.96 ± 0.1 and -2.53 ± 0.23.
Take CCAAAGCAAUAUUACGCAUC: the “self-splicing fitness (ln)” value is -3.89 ± 0.16 (30 °C) and -3.05 ± 0.16 (37 °C).
In the same order, the values of CCAAAGCAAUAUUACGCCCA are -2.49 ± 0.33 and -2.72 ± 0.34.
The like results for CCAAAGCAAUAUUACGCCUU were, in that order, -3.62 ± 0.34 and -2.88 ± 0.32.
In the same order, the values of CCAAAGCAAUAUUACGCGAG are -2.62 ± 0.098 and -1.42 ± 0.094.
With CCAAAGCAAUAUUACGCGGA, the “self-splicing fitness (ln)” value reads like this: (30 °C) -3.47 ± 0.22; (37 °C) -2.76 ± 0.3.
In the same order, the values of CCAAAGCAAUAUUACGCUGA are -4.48 ± 0.36 and -2.75 ± 0.19.
In the same order, the values of CCAAAGCAAUAUUACGCUUG are -3.7 ± 0.18 and -2.93 ± 0.2.
In the same order, the values of CCAAAGCAAUAUUACGGCAU are -3.72 ± 0.15 and -2.23 ± 0.15.
For the sequence CCAAAGCAAUAUUACGGCUA, the “self-splicing fitness (ln)” value reads like this: (30 °C) -4.05 ± 0.43; (37 °C) -2.28 ± 0.28.
The like results for CCAAAGCAAUAUUACGGGAG were, in that order, -3.08 ± 0.18 and -2.78 ± 0.26.
CCAAAGCAAUAUUACGGGAU: the “self-splicing fitness (ln)” value was -3.6 ± 0.15 (30 °C) and -2.37 ± 0.14 (37 °C).
Consider CCAAAGCAAUAUUACGUAAA, for which the “self-splicing fitness (ln)” value is, setting by setting: (30 °C) -3.24 ± 0.11; (37 °C) -2.07 ± 0.14.
